In patent US7943295B2, “Screening and therapeutic method for NSCLC targeting CDCA1-KNTC2 complex” (Oncotherapy Science, Inc., priority 2005, dated 2011):
Entries after “also recorded” stand apart in the source; their conditions may differ. Values belong to the molecule of their own block, whether it stands above or below them. Where no end group is shown, it is not given here.

Columns and labels:
endogenous KNTC2 = molecular target: T1, endogenous KNTC2 (Homo sapiens, UniProt O14777); assay: Immunoprecipitation of FLAG-tagged CDCA1 deletion-constructs in LC319 cells; format: binding; details: LC319 cells transfected with deletion-construct
T1 construct: endogenous in cells; host or cells: LC319
T1 sequence (O14777 1-642): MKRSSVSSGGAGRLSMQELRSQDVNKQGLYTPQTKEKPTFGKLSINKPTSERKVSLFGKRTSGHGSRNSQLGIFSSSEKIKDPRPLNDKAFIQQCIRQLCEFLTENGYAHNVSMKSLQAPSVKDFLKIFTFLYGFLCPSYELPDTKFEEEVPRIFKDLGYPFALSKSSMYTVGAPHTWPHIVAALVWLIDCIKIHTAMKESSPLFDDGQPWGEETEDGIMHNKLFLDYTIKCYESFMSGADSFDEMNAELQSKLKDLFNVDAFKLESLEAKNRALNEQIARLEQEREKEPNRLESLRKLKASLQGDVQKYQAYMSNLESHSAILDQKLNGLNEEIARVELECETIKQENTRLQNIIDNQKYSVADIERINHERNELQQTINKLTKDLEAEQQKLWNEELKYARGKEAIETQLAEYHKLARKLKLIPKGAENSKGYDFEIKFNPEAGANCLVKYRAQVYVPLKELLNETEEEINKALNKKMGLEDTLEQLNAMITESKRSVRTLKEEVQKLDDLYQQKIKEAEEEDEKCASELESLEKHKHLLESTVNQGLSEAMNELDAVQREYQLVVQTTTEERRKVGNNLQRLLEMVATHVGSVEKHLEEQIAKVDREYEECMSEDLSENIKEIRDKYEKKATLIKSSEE
Method: (g) Identification of the KNTC2-binding region in CDCA1: Eleven deletion-constructs of CDCA1 (CDCA1 200-464, CDCA1 149-464, CDCA11-348, CDCA11-148, CDCA1 149-306, CDCA1 306-464, CDCA1 319-464, CDCA1 277-416, CDCA1 277-367, CDCA1 319-416, and CDCA1 319-367) were cloned into appropriate sites of C-terminal FLAG-tagged-pCAGGS vector. Cell extracts from lung-cancer cell line LC319, transfected with plasmids expressing eleven deletion-constructs of CDCA1 were pre-cleared by incubation at 4° C. for 1 hour with 100 μl of protein G-agarose beads in final volumes of 2 ml of immunoprecipitation buffer (0.5% NP-40, 50 mM Tris-HCl, 150 mM NaCl) in the presence of proteinase inhibitor. After centrifugation at 1,000 rpm for 5 min at 4° C., the supernatants were incubated at 4° C. with anti-FLAG M2 agarose for 2 hours. After the beads were collected from each sample by centrifugation at 5,000 rpm for 2 min and washed six times with 1 ml of immunoprecipitation buffer, the washed beads were re-suspended in 50 μl of Laemmli sample buffer and boiled for 5 min before the proteins were separated on 10% SDS PAGE gels. Immunoblot was performed using KNTC2 polyclonal antibody (Abcom, Inc.) and anti-FLAG M2 monoclonal antibody respectively (Sigma-Aldrich Co.).

MRC5 cells = assay: MTT assay, 11R-peptides on normal lung fibroblasts; format: cell-based; details: normal human lung fibroblast derived MRC5 cells, hardly detectable CDCA1 and KNTC2
Method: (m) Effect of 11R-peptides on lung-cancer cell growth: LC319 and […] and normal human lung fibroblast derived MRC5 cells were incubated with 11R-peptides at the concentration of 5 μM, 10 μM, and 20 μM for seven days. The medium was exchanged every other day at the appropriate concentrations of each peptide and the viability of cells was evaluated by MTT assay at 7 days after the treatment; briefly, cell-counting kit-8 solution (DOJINDO, Kumamoto, Japan) was added to each dish at a concentration of 1/10 volume, and the plates were incubated at 37° C. for additional 4 hours. Absorbance was then measured at 490 nm, and at 630 nm as a reference, with a Microplate Reader 550 (BIO-RAD). Flow-cytometric analysis was performed as described previously (Suzuki, C. et al. Cancer Res. 65, 11314-11325 (2005).).

[1] = Mouse model: body weight and food intake; format: in vivo, BALB/c nude mice; details: intratumoral 0.15 μmol/body/day for 7 weeks, among three treatment groups, data not shown
Method: (n) Mouse model: The animal experiments were conducted according to the institutional and national guidelines for the care and use of laboratory animals, and approved by the institutional animal use committee. 1×10^6 of A549 cells were subcutaneously implanted into the right shoulder of 6-week-old male BALB/c nude mice (nu/nu). Two weeks after the injection, the mice with tumor (30 mm^3 volume on average) were randomized into three groups and intratumorly administered with 11R-CDCA1398-416 peptides (0.15 μmol/body/day), scramble (0.15 μmol/body/day), or PBS (control) for 7 weeks. Tumor volume was measured once a day by using a caliper and applying the data to the formula (volume=0.52×[width]^2×[length]) to calculate the volume of a spheroid.

CDCA1-KNTC2 complex = molecular target: T2, CDCA1-KNTC2 complex (Homo sapiens, UniProt O14777); assay: Immunoprecipitation: suppression of CDCA1-KNTC2 complex formation in LC319 cells; format: binding; details: LC319 cells co-transfected with CDCA1 1-464 and the fragment
T2 construct: full length) and endogenous KNTC2; expressed in transfected cells; host or cells: LC319
T2 sequence (O14777 1-642): T1 sequence (O14777 1-642)
Method: (f) Identification of CDCA1-associated Proteins: Cell extracts from lung-cancer cell line LC319 were pre-cleared by incubation at 4° C. for 1 hour with 50 μl of protein A and G-agarose beads, in final volumes of 2 ml of immunoprecipitation buffer (0.5% NP-40, 50 mM Tris-HCl, 150 mM NaCl) in the presence of proteinase inhibitor. After centrifugation at 1,000 rpm for 5 min at 4° C., the supernatants were incubated at 4° C. with anti-CDCA1 polyclonal antibody, anti-KNTC2 polyclonal antibody, or normal rabbit IgG for 2 hours. […] The nucleotide sequence of each cDNA clone was determined with an ABI Prism 3700 DNA sequencer (Applied Biosystems, Foster City, Calif.), using T3, T7, or synthetic oligonucleotide primers according to the manufacturer's instructions. […]
Since the band of endogenous CDCA1 immunoprecipitated with anti-CDCA1/KNTC2 antibody overlapped with IgG-heavy chain bands, it was difficult to detect the interaction between endogenous CDCA1 and KNTC2. […] Interaction of only CDCA1 1-464 (full length) or CDCA1 200-464 with endogenous KNTC2 was detected by immunoprecipitation using anti-KNTC2 polyclonal antibody (FIG. 5A; left top panel; black and white arrows). […]

LC319 cells = assay: MTT assay after transfection of dominant-negative CDCA1 fragment; format: cell-based, human; details: LC319 transfected with fragment plasmid; P=0.0026 CDCA1 200-464 vs CDCA1 149-306

- interaction with endogenous KNTC2 (endogenous KNTC2): unable to interact
Molecule: CDCA1 319-367: C-terminal FLAG-tagged deletion-construct of CDCA1 (NLEDQIESDESELKKLKTEENSFKRLMIVKKEKLATAQFKINKKHEDVK-{FLAG tag})

- interaction with endogenous KNTC2 (endogenous KNTC2): unable to interact
B1: CDCA1 277-367: C-terminal FLAG-tagged deletion-construct of CDCA1 (protein)
chain: EIYGDSVDCLPSCQLEVQLYQKKIQDLSDNREKLASILKESLNLEDQIESDESELKKLKTEENSFKRLMIVKKEKLATAQFKINKKHEDVK
modifications: left off: small tags and cut ends

- interaction with endogenous KNTC2 (endogenous KNTC2): unable to interact
B2: CDCA1 149-306: C-terminal FLAG-tagged deletion-construct of CDCA1, served as a control (protein)
chain: ADKMQQLNAAHQEALMKLERLDSVPVEEQEEFKQLSDGIQELQQSLNQDFHQKTIVLQEGNSQKKSNISEKTKRLNELKLLVVSLKEIQESLKTKIVDSPEKLKNYKEKMKDTVQKLKNARQEVVEKYEIYGDSVDCLPSCQLEVQLYQKKIQDLSDN
modifications: left off: small tags and cut ends
notes: C-terminal FLAG-tagged deletion-construct of CDCA1, served as a control
- interaction with endogenous KNTC2 (endogenous KNTC2; listed as CDCA1149-306): did not retain any appreciable ability to interact

Continued, molecule first:

Molecule: RRRRRRRRRRRGGGIQKIKLGIQQLKDAAEREK [11R-CDCA1 398-416]
- cell viability (MTT) (MRC5 cells): no off-target effect
- body weight [1]: no difference
- food intake [1]: no difference

B3: CDCA11-148: C-terminal FLAG-tagged deletion-construct of CDCA1 (protein)
chain: METLSFPRYNVAEIVIHIRNKILTGADGKNLTKNDLYPNPKPEVLHMIYMRALQIVYGIRLEHFYMMPVNSEVMYPHLMEGFLPFSNLVTHLDSFLPICRVNDFETADILCPKAKRTSRFLSGIINFIHFREACRETYMEFLWQYKSS
modifications: left off: small tags and cut ends
notes: C-terminal FLAG-tagged deletion-construct of CDCA1
- interaction with endogenous KNTC2 (endogenous KNTC2): unable to interact; also recorded: did not retain any appreciable ability to interact

B4: CDCA1 200-464: C-terminal FLAG-tagged deletion-construct of CDCA1 lacking the N-terminal portion; dominant-negative fragment (protein)
chain: QKTIVLQEGNSQKKSNISEKTKRLNELKLLVVSLKEIQESLKTKIVDSPEKLKNYKEKMKDTVQKLKNARQEVVEKYEIYGDSVDCLPSCQLEVQLYQKKIQDLSDNREKLASILKESLNLEDQIESDESELKKLKTEENSFKRLMIVKKEKLATAQFKINKKHEDVKQYKRTVIEDCNKVQEKRGAVYERVTTINQEIQKIKLGIQQLKDAAEREKLKSQEIFLNLKTALEKYHDGIEKAAEDSYAKIDEKTAELKRKMFKMST
modifications: left off: small tags and cut ends
notes: C-terminal FLAG-tagged deletion-construct of CDCA1 lacking the N-terminal portion; dominant-negative fragment
- interaction with endogenous KNTC2 (endogenous KNTC2): strongest affinity; also recorded: Interaction
- complex formation between exogenous CDCA1 (full length) and endogenous KNTC2 (CDCA1-KNTC2 complex): reduced complex formation; also recorded: reduction of the complex formation
- cell viability (MTT) (LC319 cells): significant decreases; also recorded: dominant-negative effect
